Patent US20250099534A1, “UBIQUITIN HIGH AFFINITY CYCLIC PEPTIDES AND METHODS OF USE THEREOF” (TECHNION RESEARCH & DEVELOPMENT FOUNDATION LIMITED, priority 2022, published 2025)
Where two headings read alike, the source gives them in different places. Starred links: 1 amine or outer side, 2 acyl side, 3 side chain; linkers in the order of their positions; H or OH if unused. Positions of bridges follow the written chain, without caps; N, C: chain ends. No end group written: not given here. *: point of attachment. mClBz = N-terminal group cyclised as a benzyl thioether to a Cys, O=C(c1cccc(C[*:3])c1)[*:2]; C6F5 = pentafluorophenyl group on the Cys sulfur, Fc1c(F)c(F)c(*)c(F)c1F

How the values were obtained:
[1] = molecular target: Lys63-linked Ub chains (on proteins in cells and in U2OS lysate); test: cell-based or functional assay
[2] = molecular target: Lys63-linked Ub chains (on proteins in cells and in U2OS lysate); test: cell-based or functional assay; remark: listed apart in the source

γ-H2AX level, western blot, HeLa cells [1]	γ-H2AX level, western blot, U2OS cells [1]	increase in the population of HeLa cells at G2/M phase, flow cytometry, 72 h [2]	increase in the population of HeLa cells at G2/M phase, flow cytometry, 96 h [2]	increase of overall Annexin V positive HeLa cells, 96 h [2]	relative tail moment, comet assay, U2OS cells [2]	γ-H2AX level, western blot, HeLa cells [2]	γ-H2AX level, western blot, U2OS cells [2]	Binder
2.4 fold	1.8 fold							mClBz-C(C6F5)LIWIGSSKNPYILCG (thioether N-15) [cyclic peptide 20, CP1-L1C-C6F5]
		5.2%	13%	14.5%	8 fold	3.5 fold	3 fold	mClBz-CLIWIGSSKNPYILCG (bridge N-15; not fully specified (C-terminus, bridges)) [cyclic peptide 2 (CP1-L1C)]
